Results from US20240254222A1 (Bayer, published 2024).

T1: Mouse Semaphorin3A-Fc (R&D Systems), TPP-13357 (mouse, UniProt O08665 21-747)
T1 construct: range 21-747; R&D Systems 5926-S3; also called mouse Sema3A-Fc
T1 sequence (looked up): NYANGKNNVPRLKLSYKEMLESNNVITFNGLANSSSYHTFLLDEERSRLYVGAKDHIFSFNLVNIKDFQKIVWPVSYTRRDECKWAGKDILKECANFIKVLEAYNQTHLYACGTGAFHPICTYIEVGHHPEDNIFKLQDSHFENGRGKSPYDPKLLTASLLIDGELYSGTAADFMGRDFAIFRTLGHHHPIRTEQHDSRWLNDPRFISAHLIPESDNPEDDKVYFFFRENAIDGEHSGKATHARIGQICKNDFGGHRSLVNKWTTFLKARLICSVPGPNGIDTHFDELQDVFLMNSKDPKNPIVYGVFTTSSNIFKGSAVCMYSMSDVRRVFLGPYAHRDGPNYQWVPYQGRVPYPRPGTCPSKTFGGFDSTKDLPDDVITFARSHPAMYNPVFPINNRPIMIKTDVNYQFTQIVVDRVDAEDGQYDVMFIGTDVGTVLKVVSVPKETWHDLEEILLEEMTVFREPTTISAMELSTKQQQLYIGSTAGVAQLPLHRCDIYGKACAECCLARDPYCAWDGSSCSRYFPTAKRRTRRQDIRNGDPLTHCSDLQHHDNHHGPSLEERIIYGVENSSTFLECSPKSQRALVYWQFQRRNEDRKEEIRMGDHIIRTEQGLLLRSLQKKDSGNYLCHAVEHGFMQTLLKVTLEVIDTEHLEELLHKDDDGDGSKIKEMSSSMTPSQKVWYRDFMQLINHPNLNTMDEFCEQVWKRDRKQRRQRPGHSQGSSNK


What was measured:
[1] = target: T2, Human Semaphorin3A-Fc (R&D Systems), TPP-13211 (human); assay: SPR, captured IgG1, Sema3A-Fc analyte
T2 construct: R&D Systems 1250-S3; also called recombinant human Sema3A-Fc chimera
Protocol: (§1) To assess the binding kinetics and affinity of anti-Sema3A antibodies as well as their species cross-reactivity profile, binding assays were conducted using surface plasmon resonance (SPR). Binding assays were performed on a Biacore T200 instrument or on a Biacore 8K+ instrument (Cytiva) at 25° C. using assay buffer HBS P+, 300 mM NaCl, 0.75 mM CaCl₂, 2.5 mM MgCl₂, 1 mg/ml BSA, 0.05% NaN₃. Antibodies were captured either via anti-human Fc IgGs (“Human antibody capture kit”, Order No. BR100839, Cytiva) or in case of Fc-tagged analytes by anti-human Fab IgGs (“Human Fab capture kit”, Order No. 28958325, Cytiva) covalently amine coupled to a Series S CM5 sensor chip (Cytiva). The amine coupling was carried out according to the manufacturer's instructions using 1-ethyl-3-(3-dimethylaminopropyl) carbodiimide hydrochloride (EDC), N-hydroxysuccinimide (NHS) and ethanolamine HCl, pH 8.5 (“Amine Coupling Kit” BR-1000-50, Cytiva.). For phage display hits Fc-tagged human and mouse Sema3A was used as analytes in a concentration range from 1.56-200 nM. Human, mouse, cynomolgus, rat, dog and pig monovalent Sema3A domain were used as analytes in a concentration series from […] in multi cycle kinetics mode or in 100 nM for binding analysis only. The sensor surface was regenerated with glycine pH 2.0 after each antigen injection. Obtained sensorgrams were double referenced (subtraction of reference flow cell signal and buffer injection) and were fitted to a 1:1 Langmuir binding model to derive kinetic data using the Biacore T200 Evaluation software.

[2] = target: T1, Mouse Semaphorin3A-Fc (R&D Systems), …; assay: SPR, captured IgG1, Sema3A-Fc analyte
Protocol: as §1

[3] = target: T2, Human Semaphorin3A-Fc (R&D Systems), …; assay: competition ELISA on coated TPP-13211, competitor biotinylated TPP-15374
Protocol: For screening in a competition ELISA setup, human Sema3a (TPP-13211) was coated onto 384-well plates (Greiner bio-one, 781077) with a concentration of 0.5 μg/ml in coating buffer (Carbonate-Basis pH 9.6, Candor 121125) over night at 10° C. After washing the plates 3 times with 50 μl PBS 0.05% Tween the plates were blocked with 50 μl Smart Block® (Candor 113500) for 1 h at 20° C. and washed again 3 times as described.
Subsequently, 20 μl of pre-mixed antibody solution was added to the plates and incubate for 18 h at 10° C. […] The total concentration of the added antibody solution was 0.25 μg/ml. During the incubation time the antibodies bound to the plates in a competitive manner as they compete for the same epitope on the human Sema3A protein.
After subsequent washing with 50 μl PBS 0.05% Tween for 3 times, 20 μl of a Streptavidin-HRP solution (R&D Systems, DY998, 1:200 in PBS 0.05% Tween 10% Smart Block) were added and incubated for 1 h and 20° C. followed by subsequent washing 3 times with 50 μl PBS 0.05% Tween and addition of 20 μl Amplex Red solution (Invitrogen A12222, 1:1000 in NaP-buffer 50 mM pH7.6 with 1:10000 of 30% H2O2). After a final incubation for 20 min at 20° C. the signal was determined using an emission wavelength of 595 nm and excitation of 530 nm.

T2 sequence (chain, as listed by the source limits assumed): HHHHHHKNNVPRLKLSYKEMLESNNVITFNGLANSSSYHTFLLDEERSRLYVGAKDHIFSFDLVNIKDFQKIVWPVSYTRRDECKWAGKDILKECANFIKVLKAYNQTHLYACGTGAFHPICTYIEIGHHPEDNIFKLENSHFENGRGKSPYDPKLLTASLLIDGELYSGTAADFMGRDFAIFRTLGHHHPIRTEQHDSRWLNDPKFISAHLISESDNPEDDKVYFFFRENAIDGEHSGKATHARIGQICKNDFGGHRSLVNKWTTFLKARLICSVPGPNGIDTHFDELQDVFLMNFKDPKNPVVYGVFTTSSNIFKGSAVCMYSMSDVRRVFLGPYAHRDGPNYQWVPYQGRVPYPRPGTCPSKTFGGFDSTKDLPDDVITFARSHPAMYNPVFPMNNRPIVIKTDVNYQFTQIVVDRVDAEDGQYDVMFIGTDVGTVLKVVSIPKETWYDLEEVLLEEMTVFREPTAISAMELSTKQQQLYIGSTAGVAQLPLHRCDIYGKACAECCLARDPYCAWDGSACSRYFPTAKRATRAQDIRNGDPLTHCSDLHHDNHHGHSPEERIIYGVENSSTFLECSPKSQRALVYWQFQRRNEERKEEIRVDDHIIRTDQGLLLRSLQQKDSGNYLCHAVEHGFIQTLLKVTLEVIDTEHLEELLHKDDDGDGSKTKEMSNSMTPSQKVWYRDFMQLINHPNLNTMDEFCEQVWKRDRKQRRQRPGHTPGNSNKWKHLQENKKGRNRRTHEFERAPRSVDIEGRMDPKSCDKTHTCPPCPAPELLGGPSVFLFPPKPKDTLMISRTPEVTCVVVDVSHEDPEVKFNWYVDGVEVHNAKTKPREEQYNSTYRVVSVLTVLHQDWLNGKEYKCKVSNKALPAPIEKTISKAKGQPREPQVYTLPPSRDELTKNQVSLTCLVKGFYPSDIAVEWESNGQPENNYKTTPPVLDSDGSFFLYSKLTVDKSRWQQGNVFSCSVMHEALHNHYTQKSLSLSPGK

Row | Kd [1] [nM] | Kd [2] [nM] | VAL norm to TPP-9809 (1 to 1 ratio) [3] | VAL norm to TPP-9809 (1 to 5 ratio) [3] | Binder
1 | 18 | 18 | 0.69 | 0.41 | TPP-15374 (antibody, human IgG1, lambda, V domains shown, human IgG1; also called IgG1, hit from panning; parental mAb) VH: EVQLLESGGGLVQPGGSLRLSCAASGFTFSSYEMNWVRQAPGKGLEWVSGISWNSGSIGYADSVKGRFTISRDNSKNTLYLQMNSLRAEDTAVYYCARSGYSSSWFDPDFDYWGQGTLVTVSS VL: QSVLTQPPSASGTPGQRVTISCTGSSSNIGAGYDVHWYQQLPGTAPKLLIYGNSNRPSGVPDRFSGSKSGTSASLAISGLRSEDEADYYCSSYAGSNPYVVFGGGTKLTVLG
2 | 2.8 | 3.2 |  |  | TPP-15370 (antibody, human IgG1, lambda, V domains shown, human IgG1; also called IgG1, hit from panning; parental mAb) VH: EVQLLESGGGLVQPGGSLRLSCAASGFTFSSYGMHWVRQAPGKGLEWVSAIGTGGDTYYADSVMGRFTISRDNSKNTLYLQMNSLRAEDTAVYYCARRDDYTSRDAFDVWGQGTLVTVSS VL: not shown
